Assay results taken from patent US20050112168A1 (UNIVERSITY OF ROCHESTER, published 2005).
Ends that are not written are not given here.

Key:
[1] = molecular target: T1, purified type V tartrate resistant acid phosphatase (TRAP), also known as uteroferrin (UniProt P09889 22-340, limits assumed); experiment: M13 random 12-mer phage display, three rounds of bio-panning on immobilised TRAP
T1 construct: Purified protein used as immobilised bait, in ELISA, Scatchard, Far-Western and GST pull-down; also called type V TRAP; purified TRAP
T1 sequence (looked up): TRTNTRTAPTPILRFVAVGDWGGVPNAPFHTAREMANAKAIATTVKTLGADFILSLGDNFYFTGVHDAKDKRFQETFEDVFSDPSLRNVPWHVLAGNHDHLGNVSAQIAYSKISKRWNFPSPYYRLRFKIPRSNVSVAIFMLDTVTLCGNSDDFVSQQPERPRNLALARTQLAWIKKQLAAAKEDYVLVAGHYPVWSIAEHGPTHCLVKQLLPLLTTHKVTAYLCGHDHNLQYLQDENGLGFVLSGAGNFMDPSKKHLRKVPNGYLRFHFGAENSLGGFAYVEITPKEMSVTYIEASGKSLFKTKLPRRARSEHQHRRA
Description: After three rounds of bio-panning, elution and amplification 44 phage clones were selected at random and sequenced.

[2] = molecular target: T1, purified type V tartrate resistant acid …; experiment: modified phage ELISA on immobilised TRAP, antibody to the phage coat
Description: The binding was compared to wild type phage containing no expressed oligopeptides.

Smad 2 = molecular target: T2, Smad 2 (UniProt Q15796 2-467, limits assumed); experiment: GST-TRAP pull-down from lysate of cells without HIS-TRIP, Western
T2 construct: Detected by a bought antibody in the pull-down
Protocol: (§1) The GST fusion proteins were pulled down by glutathione coated beads (Amersham) in 4° C. for 1 h then washed three times with NETN buffer (20 mM Tris/pH 8.0, 100 mM NaCl, 6 mM MgCl₂, 1 mM EDTA, 0.5% NP-40, 1 mM DTT, 8% glycerol, and 1 mM PMSF). The purified GST fusion proteins and beads were suspended in 100 μl NETN buffer. […] After incubating for 1 h at 4° C. with agitation, the glutathione-coated beads were washed with NETN buffer four times then the protein complexes were loaded in SDS-PAGE and visualized by using the ECL-plus method.
(§2) Detection of HIS-TRIP was performed with anti-HIS antibodies and detection of the TGFβRII and Smad 2 were performed with a commercially available antibodies. For these studies, all cells were transfected with the TGFβRII. […] The cells were lysed and the lysate incubated with glutathione beads. The beads were extensively washed and the proteins interacting with the beads were analyzed with Western analysis.

type II TGFβ receptor = molecular target: T3, type II TGFβ receptor (UniProt P37173 23-567, limits assumed); experiment: as above
T3 construct: From lysate of transfected cells; also called TGFβRII; TGFβ type II receptor
Protocol: as §1, §2

RNase A = molecular target: T4, RNase A (UniProt P61823 27-150); experiment: Far-Western, proteins on membrane probed with Clone 5 phage
T4 construct: Control
T4 sequence (looked up): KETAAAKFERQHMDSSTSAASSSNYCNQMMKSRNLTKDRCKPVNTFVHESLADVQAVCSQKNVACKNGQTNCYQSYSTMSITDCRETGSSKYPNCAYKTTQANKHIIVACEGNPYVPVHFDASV
Protocol: (§3) They were then transferred to PVDF membranes (NEN) and incubated with 10¹⁰ phage particles from selected clones at 4° C. for overnight. The membrane was washed in PBS with 0.5% [v/v] […] An anti-M13 phage peroxidase-conjugated antibody at a dilution of 1:15000 was added and gently swirled at room temperature for an hour. […] Detection of the phage/antibody complex was accomplished using ECL-plus (Amersham) with the membrane being exposed to Kodak Biomax MR film for 30 seconds.

bovine serum albumin = molecular target: T5, bovine serum albumin (bovine, UniProt P02769 25-607); experiment: as above
T5 construct: Control; also called BSA
Protocol: as §3

[3] = molecular target: T1, purified type V tartrate resistant acid …; experiment: Scatchard-type analysis, immobilised TRAP and increasing phage titer, bound phage counted by plaque assay
Protocol: After a one hour room temperature incubation, each well was washed with PBS with 0.5% [v/v] Tween 20 four times. The bound phage where then amplified directly in the wells by the addition of 100 ul of log-phase ER2537 (M13 bacteria host). The number of phage in each well was then determined with a standard plaque assay. […] The bound and free fraction of phage were then determined.

[4] = molecular target: T6, VP-16-AD-GPC412 (VP-16-AD fused to GPC4 deficient in the 12 amino acids of Clone 5) (human, UniProt O75487 19-556); experiment: mammalian two-hybrid luciferase assay
T6 construct: also called 12 amino acid deficient version of GPC4
T6 sequence: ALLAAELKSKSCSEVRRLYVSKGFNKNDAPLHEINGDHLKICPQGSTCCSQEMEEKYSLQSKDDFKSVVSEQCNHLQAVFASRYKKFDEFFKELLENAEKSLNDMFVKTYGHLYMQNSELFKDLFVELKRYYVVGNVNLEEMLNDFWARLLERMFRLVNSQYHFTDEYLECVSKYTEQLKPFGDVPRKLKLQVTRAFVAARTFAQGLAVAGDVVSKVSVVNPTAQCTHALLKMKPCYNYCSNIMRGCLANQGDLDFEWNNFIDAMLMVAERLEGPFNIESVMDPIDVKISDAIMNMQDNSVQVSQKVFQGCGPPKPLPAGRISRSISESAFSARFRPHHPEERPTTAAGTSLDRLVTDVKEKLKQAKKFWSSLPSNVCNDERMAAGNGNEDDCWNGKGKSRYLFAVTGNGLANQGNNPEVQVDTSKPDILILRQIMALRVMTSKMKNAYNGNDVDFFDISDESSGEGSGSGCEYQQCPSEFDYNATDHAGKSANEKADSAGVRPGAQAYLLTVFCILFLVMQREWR

T3 sequence (P37173 23-567 limits assumed): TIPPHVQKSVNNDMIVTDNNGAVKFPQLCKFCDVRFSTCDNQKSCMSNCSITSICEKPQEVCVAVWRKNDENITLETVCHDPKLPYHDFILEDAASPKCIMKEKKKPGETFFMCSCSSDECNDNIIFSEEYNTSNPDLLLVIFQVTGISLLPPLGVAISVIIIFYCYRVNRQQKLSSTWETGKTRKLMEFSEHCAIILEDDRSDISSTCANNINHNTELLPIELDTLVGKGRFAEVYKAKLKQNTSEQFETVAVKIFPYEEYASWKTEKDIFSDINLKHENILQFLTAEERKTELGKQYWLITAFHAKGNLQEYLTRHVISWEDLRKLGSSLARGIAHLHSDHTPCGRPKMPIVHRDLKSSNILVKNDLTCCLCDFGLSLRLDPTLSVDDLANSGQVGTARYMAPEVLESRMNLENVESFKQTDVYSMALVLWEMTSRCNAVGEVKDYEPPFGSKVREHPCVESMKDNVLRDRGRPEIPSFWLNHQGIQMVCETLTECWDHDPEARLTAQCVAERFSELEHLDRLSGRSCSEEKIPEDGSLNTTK
T5 sequence (P02769 25-607 limits assumed): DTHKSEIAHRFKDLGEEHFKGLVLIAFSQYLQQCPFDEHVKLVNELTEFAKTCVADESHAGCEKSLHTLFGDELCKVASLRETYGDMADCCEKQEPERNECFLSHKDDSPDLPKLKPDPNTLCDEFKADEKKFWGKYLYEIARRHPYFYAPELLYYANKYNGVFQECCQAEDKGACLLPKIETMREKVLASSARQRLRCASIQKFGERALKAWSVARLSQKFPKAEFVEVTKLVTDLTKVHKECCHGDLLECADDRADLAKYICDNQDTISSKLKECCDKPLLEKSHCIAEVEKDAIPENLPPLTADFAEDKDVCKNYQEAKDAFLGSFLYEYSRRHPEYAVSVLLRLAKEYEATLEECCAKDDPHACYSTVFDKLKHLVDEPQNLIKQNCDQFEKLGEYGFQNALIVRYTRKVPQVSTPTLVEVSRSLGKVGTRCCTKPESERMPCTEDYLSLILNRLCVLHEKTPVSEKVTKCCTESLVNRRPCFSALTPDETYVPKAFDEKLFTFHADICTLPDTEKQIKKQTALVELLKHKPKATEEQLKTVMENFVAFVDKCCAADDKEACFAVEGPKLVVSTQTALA
T2 sequence (Q15796 2-467 limits assumed): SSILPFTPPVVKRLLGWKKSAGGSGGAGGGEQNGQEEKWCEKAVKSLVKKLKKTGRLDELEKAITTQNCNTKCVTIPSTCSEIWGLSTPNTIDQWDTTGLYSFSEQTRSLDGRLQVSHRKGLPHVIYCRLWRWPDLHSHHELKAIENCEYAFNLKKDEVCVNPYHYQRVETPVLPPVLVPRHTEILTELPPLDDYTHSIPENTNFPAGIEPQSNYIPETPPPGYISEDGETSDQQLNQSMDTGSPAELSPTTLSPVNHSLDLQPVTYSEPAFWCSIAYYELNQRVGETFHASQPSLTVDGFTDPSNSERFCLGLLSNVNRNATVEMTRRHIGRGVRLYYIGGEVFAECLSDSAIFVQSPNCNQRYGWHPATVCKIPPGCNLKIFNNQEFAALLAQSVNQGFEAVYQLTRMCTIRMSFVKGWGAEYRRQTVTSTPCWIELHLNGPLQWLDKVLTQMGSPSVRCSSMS

B1: M13 phage clone displaying SEQ ID NO:21 (peptide)
peptide: SQWHPRSASYPM
notes: also called ID No. 21; not shown: M13 phage coat protein carrying the random 12-mer; not specified
Fre (frequency among 44 sequenced clones after bio-panning with TRAP) [1]: 4 of 44 clones
fold increase in affinity for TRAP over wild type phage [2]: 40 fold

B2: GST-TRAP fusion protein (other)
chain: ATPALRFVAVGDWGGVPNAPFHTAREMANAKEIARTVQILGADFILSLGDNFYFTGVQDINDKRFQETFEDVFSDRSLRKVPWYVLAGNHDHLGNVSAQIAYSKISKRWNFPSPFYRLHFKIPQTNVSVAIFMLDTVTLCGNSDDFLSQQPERPRDVKLARTQLSWLKKQLAAAREDYVLVAGHYPVWSIAEHGPTHCLVKQLRPLLATYGVTAYLCGHDHNLQYLQDENGVGYVLSGAGNFMDPSKRHQRKVPNGYLRFHYGTEDSLGGFAYVEISSKEMTVTYIEASGKSLFKTRLPRRARP
notes: also called 'GST' tagged TRAP; recombinant GST-TRAP; not shown: glutathione S-transferase tag (Amersham Pharmacia GST system)
binding result (Smad 2): no binding
binding result (type II TGFβ receptor): no binding

B3: M13 phage clone displaying SEQ ID NO:22 (peptide)
peptide: TPSLPPTMFRLT
notes: also called ID No. 22; not shown: M13 phage coat protein carrying the random 12-mer; not specified
Fre (frequency among 44 sequenced clones after bio-panning with TRAP) [1]: 4 of 44 clones
fold increase in affinity for TRAP over wild type phage [2]: 40 fold

B4: Clone 5 phage (M13 phage displaying the 12-mer TPLSYLKGLVTV) (peptide)
peptide: TPLSYLKGLVTV
modifications: also: displayed on M13 phage coat protein (protein and linker not given here)
notes: also called GPC4 phage (Clone 5); ID No. 23; not shown: M13 phage coat protein carrying the random 12-mer
Fre (frequency among 44 sequenced clones after bio-panning with TRAP) [1]: 15 of 44 clones
binding result (RNase A): no binding (tested: 5 ug loaded)
binding result (bovine serum albumin): no binding (tested: 5 ug loaded)
Kd [3]: 0.11 nM

B5: GAL-4-BD-TRAP fusion protein (other)
chain: MKLLSSIEQACDICRLKKLKCSKEKPKCAKCLKNNWECRYSPKTKRSPLTRAHLTEVESRLERLEQLFLLIFPREDLDMILKMDSLQDIKALLTGLFVQDNVNKDAVTDRLASVETDMPLTLRQHRISATSSSEESSNKGQRQLTVSATPALRFVAVGDWGGVPNAPFHTAREMANAKEIARTVQILGADFILSLGDNFYFTGVQDINDKRFQETFEDVFSDRSLRKVPWYVLAGNHDHLGNVSAQIAYSKISKRWNFPSPFYRLHFKIPQTNVSVAIFMLDTVTLCGNSDDFLSQQPERPRDVKLARTQLSWLKKQLAAAREDYVLVAGHYPVWSIAEHGPTHCLVKQLRPLLATYGVTAYLCGHDHNLQYLQDENGVGYVLSGAGNFMDPSKRHQRKVPNGYLRFHYGTEDSLGGFAYVEISSKEMTVTYIEASGKSLFKTRLPRRARP
notes: Expressed inside transfected cells
binding result [4]: no binding
